Measurements taken from patent US20130108613.

Columns and labels:
[1] = molecular target: oligomeric synthetic human Aβ1-42 preparation
[2] = molecular target: monomeric synthetic human Aβ1-42 peptide

B1: recombinant NIa (nuclear inclusion a) protease of Turnip mosaic virus (TuMV), purified from E. coli (protein)
chain: SNSMFRGLRDYNPISNNICHLTNVSDGASNSLYGVGFGPLILTNRHLFERNNGELVIKSRHGEFVIKNTTQLHLLPIPDRDLLLIRLPKDIPPFPQKLGFRQPEKGERICMVGSNFQTKSITSVVSETSTIMPVENSQFWKHWISTKDGQCGSPMVSTKDGKILGLHSLANFQNSINYFAAFPDDFAEKYLHTIEAHEWVKHWKYNTSAISWGSLNIQASQPSGLFKVSKLISDLDSTAVYAQ
Question: With B1 as the protein, how does the “oligomeric Aβ level with NIa pre-incubated with NEM, Western blot (6E10)” value [1] read?
Answer: This NIa-mediated reduction of oligomeric Aβ was significantly blocked by NEM

Question: And the “oligomeric Aβ remaining after 3 hrs with NIa, densitometry of Western blot (6E10), relative to Aβ only” value [1]?
Answer: only 19% of oligomeric Aβ remained

Question: And the “reduction of monomeric Aβ level, densitometry of Western blot (6E10), 3 hrs at 25 °C, without NEM” value [2]?
Answer: NIa reduced Aβ levels by 64% in the absence of NEM
